The target of data set [1] is LOX2-AOS-AOC2 plastid envelope complex (Arabidopsis thaliana, UniProt P38418). Particulars: intact complex, coupled LOX2-AOS-AOC2 turnover; α-LeA is the LOX2 substrate.
For data set [2], the target named is T1, AOS (CYP74A) (Arabidopsis thaliana, UniProt Q96242).
T1 construct: free enzyme from SDS-dissociated, dialyzed envelope complex; bacterially expressed C-terminal (His)6 AOS, imported into Arabidopsis chloroplasts (transit peptide cleaved)
T1 sequence (Q96242 34-518): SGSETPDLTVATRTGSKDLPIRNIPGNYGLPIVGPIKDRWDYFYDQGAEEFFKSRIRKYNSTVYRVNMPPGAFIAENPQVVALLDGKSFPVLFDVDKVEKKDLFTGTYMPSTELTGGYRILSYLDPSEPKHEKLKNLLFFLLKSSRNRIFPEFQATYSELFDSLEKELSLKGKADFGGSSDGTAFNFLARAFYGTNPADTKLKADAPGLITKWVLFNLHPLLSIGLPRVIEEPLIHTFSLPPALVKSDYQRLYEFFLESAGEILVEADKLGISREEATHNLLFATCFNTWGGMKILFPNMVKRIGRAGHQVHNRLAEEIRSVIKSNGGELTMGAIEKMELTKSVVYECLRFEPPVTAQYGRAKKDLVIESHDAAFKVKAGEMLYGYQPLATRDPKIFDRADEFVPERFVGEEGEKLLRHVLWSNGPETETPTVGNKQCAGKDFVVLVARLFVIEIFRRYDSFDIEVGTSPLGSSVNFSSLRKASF
Description: cis-(+)-12-OPDA formation by free enzymes, HPLC / GC-MS. Type of data set: biochemical. The note with it: free enzymes (SDS-dissociated, dialyzed complex), read-out coupled through AOC2; 10 min.

The target of data set [3] is T2, C-terminal, (His)6-tagged allene oxide synthase [AOS-(His)6] (A. thaliana, UniProt Q96242 34-518).
T2 sequence (looked up): T1 sequence (Q96242 34-518)
The data set can be described thus: cell-based or functional assay.

Data set [4] deals with T2, C-terminal, (His)6-tagged allene oxide …. Description: pull-down; purified (His)6-tagged bait imported into isolated Arabidopsis chloroplasts (2.5 mM Mg-ATP); mixed envelopes solubilised with 1.3% decyl maltoside; Ni-NTA affinity chromatography, size exclusion on Superose 6 (peak I, ~250 kDa); co-purified bands identified by SDS-PAGE with protein sequencing, LOX2 also by western blot. The note with it: one partner purified. For orientation: Size exclusion chromatography separates by hydrodynamic size, large species first.

In data set [5] the target is T3, soluble, catalytically active AOS used for reconstitution of the complex (A. thaliana, UniProt Q96242 34-518).
T3 construct: allene oxide synthase (AOS, CYP74A), A. thaliana
T3 sequence: T1 sequence (Q96242 34-518)
The data set can be described thus: reconstitution of the complex in vitro; complex reconstituted from soluble, catalytically active LOX2, AOS and AOC2 and isolated plastid envelope lipids (Supplementary Fig. S8).

Data set [6] concerns the molecule itself. The data set can be described thus: SDS-PAGE with protein sequencing; bands of the proteins co-purified with AOS-(His)6 in peak I; ~72 kDa and ~24 kDa bands both sequenced as AOC2.

The values below come from PMC6411374, “Substrate channeling in oxylipin biosynthesis through a protein complex in the plastid envelope of Arabidopsis thaliana” (Journal of Experimental Botany, 2019).

The term stoichiometry N denotes the number of molecules, sites or subunits per partner or assembly.

For `CC/C=C\C/C=C\C/C=C\CCCCCCCC(=O)O` [α-linolenic acid], the “cis-(+)-12-OPDA formation by isolated complex, HPLC / GC-MS” value in data set [1] is “α-LeA was converted to cis-(+)-12-OPDA by the isolated, intact (non-SDS-dissociated) plastid envelope complex”.

Turning to `CC/C=C\C[C@@H](/C=C/C=C\CCCCCCCC(=O)O)OO` [13-HPOT, (9Z11E15Z13S)-13-hydroperoxy-9,11,15-octadecatrienoic acid], the “cis-(+)-12-OPDA formation by free enzymes, HPLC / GC-MS” value in data set [2] is given as “but it was accepted in the free-enzyme assay (Fig. 5C)”.

B1: lipoxygenase 2 (LOX2), endogenous in the envelope of Arabidopsis chloroplasts (enzyme, UniProt P38418 57-896, looked up)
chain: ANIEQEGNTVKEPIQNIKVKGYITAQEEFLEGITWSRGLDDIADIRGRSLLVELISAKTDQRITVEDYAQRVWAEAPDEKYECEFEMPEDFGPVGAIKIQNQYHRQLFLKGVELKLPGGSITFTCESWVAPKSVDPTKRIFFSDKSYLPSQTPEPLKKYRKEELETLQGKNREEVGEFTKFERIYDYDVYNDVGDPDNDPELARPVIGGLTHPYPRRCKTGRKPCETDPSSEQRYGGEFYVPRDEEFSTAKGTSFTGKAVLAALPSIFPQIESVLLSPQEPFPHFKAIQNLFEEGIQLPKDAGLLPLLPRIIKALGEAQDDILQFDAPVLINRDRFSWLRDDEFARQTLAGLNPYSIQLVEEWPLISKLDPAVYGDPTSLITWEIVEREVKGNMTVDEALKNKRLFVLDYHDLLLPYVNKVRELNNTTLYASRTLFFLSDDSTLRPVAIELTCPPNINKPQWKQVFTPGYDATSCWLWNLAKTHAISHDAGYHQLISHWLRTHACTEPYIIAANRQLSAMHPIYRLLHPHFRYTMEINARARQSLVNGGGIIETCFWPGKYALELSSAVYGKLWRFDQEGLPADLIKRGLAEEDKTAEHGVRLTIPDYPFANDGLILWDAIKEWVTDYVKHYYPDEELITSDEELQGWWSEVRNIGHGDKKDEPWWPVLKTQDDLIGVVTTIAWVTSGHHAAVNFGQYGYGGYFPNRPTTTRIRMPTEDPTDEALKEFYESPEKVLLKTYPSQKQATLVMVTLDLLSTHSPDEEYIGEQQEASWANEPVINAAFERFKGKLQYLEGVIDERNVNITLKNRAGAGVVKYELLKPTSEHGVTGMGVPYSISI
notes: lipoxygenase 2 (LOX2), A. thaliana, ~100 kDa band of the plastid envelope; also called 13-lipoxygenase; source: endogenous, envelopes of isolated Arabidopsis chloroplasts
B1: the “rate of cis-(+)-12-OPDA formation from α-LeA by the intact LOX2-AOS-AOC2 envelope complex against the free-enzyme assay (complex dissociated with SDS and dialysed)” value in data set [3] stood at 120 fold. In addition, in data set [4], the “stoichiometry N” value was 1.

B2: soluble, catalytically active LOX2 used for reconstitution of the complex (enzyme, A. thaliana, UniProt P38418 57-896, looked up)
chain: B1 chain
notes: lipoxygenase 2 (LOX2), A. thaliana
Turning to B2, the “stoichiometry N” value in data set [5] was determined as 1.

B3: allene oxide cyclase 2 (AOC2), endogenous in the envelope of Arabidopsis chloroplasts (enzyme, UniProt Q9LS02 78-253, looked up)
chain: PSKVQELSVYEINELDRHSPKILKNAFSLMFGLGDLVPFTNKLYTGDLKKRVGITAGLCVVIEHVPEKKGERFEATYSFYFGDYGHLSVQGPYLTYEDSFLAITGGAGIFEGAYGQVKLQQLVYPTKLFYTFYLKGLANDLPLELTGTPVPPSKDIEPAPEAKALEPSGVISNYTN
notes: allene oxide cyclase 2 (AOC2), A. thaliana, ~72 kDa (SDS-resistant trimer) and ~24 kDa (monomer) bands of the plastid envelope; Found both as trimer and as monomer; source: endogenous, envelopes of isolated Arabidopsis chloroplasts
Turning to B3, the “rate of cis-(+)-12-OPDA formation from α-LeA by the intact LOX2-AOS-AOC2 envelope complex against the free-enzyme assay (complex dissociated with SDS and dialysed)” value in data set [3] came to 120 fold. The results for the “stoichiometry N” value in data set [4] and in data set [6] were 4 and 3, respectively.

B4: soluble, catalytically active AOC2 used for reconstitution of the complex (enzyme, A. thaliana)
chain: B3 chain
notes: allene oxide cyclase 2 (AOC2), A. thaliana
With B4, the “stoichiometry N” value in data set [5] was determined as 4.
